From publication PMC7020397 (Toxins, 2020)
Ends that are not written are not given here.

Experiments:
[1] = target: muscle-type Torpedo nAChR (Torpedo); experiment: competition with α-bungarotoxin
human neuronal α7 nAChR = human neuronal α7 nAChR (human, UniProt P36544 23-502); experiment: competition with α-bungarotoxin
human neuronal α7 nAChR, sequence (P36544 23-502): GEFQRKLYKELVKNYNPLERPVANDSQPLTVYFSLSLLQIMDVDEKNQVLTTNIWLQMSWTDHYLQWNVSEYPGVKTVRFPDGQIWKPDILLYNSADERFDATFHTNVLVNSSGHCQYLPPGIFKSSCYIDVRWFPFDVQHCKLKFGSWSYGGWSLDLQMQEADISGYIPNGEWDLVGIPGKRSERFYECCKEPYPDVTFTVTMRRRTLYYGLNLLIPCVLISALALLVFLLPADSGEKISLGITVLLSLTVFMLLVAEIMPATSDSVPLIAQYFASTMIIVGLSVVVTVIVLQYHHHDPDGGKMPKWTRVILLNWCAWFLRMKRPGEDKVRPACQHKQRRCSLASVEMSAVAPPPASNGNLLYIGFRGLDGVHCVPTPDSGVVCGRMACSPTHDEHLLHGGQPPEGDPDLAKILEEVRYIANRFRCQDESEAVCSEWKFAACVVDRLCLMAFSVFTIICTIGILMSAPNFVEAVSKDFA

muscle-type Torpedo nAChR (Torpedo), sequence (P02710 25-461 limits assumed, chain 1 of 4): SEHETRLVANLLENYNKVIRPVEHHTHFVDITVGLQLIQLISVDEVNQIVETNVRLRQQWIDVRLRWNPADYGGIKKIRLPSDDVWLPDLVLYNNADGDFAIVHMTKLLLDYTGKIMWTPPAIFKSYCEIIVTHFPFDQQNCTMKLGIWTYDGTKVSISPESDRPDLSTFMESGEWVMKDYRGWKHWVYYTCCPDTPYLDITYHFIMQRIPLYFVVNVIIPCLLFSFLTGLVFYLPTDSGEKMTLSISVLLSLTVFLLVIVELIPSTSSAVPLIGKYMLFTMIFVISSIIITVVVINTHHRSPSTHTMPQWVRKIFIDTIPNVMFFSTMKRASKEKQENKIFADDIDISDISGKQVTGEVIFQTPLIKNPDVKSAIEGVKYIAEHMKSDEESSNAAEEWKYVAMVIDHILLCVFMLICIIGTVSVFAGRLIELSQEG
muscle-type Torpedo nAChR (Torpedo), sequence (P02712 25-493 limits assumed, chain 2 of 4, further chain): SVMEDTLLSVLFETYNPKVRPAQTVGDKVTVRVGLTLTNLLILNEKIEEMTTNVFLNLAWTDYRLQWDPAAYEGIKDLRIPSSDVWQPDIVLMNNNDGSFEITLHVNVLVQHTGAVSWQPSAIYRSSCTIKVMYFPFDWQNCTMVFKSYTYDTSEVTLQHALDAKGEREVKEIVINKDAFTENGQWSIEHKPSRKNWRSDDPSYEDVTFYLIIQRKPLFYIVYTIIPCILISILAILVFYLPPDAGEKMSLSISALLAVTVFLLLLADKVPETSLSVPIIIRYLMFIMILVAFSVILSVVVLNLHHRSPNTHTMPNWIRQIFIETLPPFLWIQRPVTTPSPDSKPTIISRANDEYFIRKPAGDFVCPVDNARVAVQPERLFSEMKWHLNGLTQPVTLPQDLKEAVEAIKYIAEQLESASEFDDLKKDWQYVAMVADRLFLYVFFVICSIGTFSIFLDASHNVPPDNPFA
muscle-type Torpedo nAChR (Torpedo), sequence (P02714 18-506 limits assumed, chain 3 of 4, further chain): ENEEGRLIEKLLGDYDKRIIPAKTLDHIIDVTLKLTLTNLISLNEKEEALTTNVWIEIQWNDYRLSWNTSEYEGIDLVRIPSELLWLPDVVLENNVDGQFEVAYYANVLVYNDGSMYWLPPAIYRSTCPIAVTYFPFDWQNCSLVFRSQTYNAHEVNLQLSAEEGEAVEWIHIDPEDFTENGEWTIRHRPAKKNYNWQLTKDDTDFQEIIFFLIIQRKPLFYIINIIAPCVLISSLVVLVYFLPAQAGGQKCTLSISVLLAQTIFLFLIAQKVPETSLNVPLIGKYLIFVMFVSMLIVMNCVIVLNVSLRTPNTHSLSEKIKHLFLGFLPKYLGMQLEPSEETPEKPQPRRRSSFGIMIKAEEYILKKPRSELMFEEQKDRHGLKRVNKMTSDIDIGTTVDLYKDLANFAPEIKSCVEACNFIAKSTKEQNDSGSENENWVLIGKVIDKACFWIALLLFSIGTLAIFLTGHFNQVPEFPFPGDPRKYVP
muscle-type Torpedo nAChR (Torpedo), sequence (P02718 22-522 limits assumed, chain 4 of 4, further chain): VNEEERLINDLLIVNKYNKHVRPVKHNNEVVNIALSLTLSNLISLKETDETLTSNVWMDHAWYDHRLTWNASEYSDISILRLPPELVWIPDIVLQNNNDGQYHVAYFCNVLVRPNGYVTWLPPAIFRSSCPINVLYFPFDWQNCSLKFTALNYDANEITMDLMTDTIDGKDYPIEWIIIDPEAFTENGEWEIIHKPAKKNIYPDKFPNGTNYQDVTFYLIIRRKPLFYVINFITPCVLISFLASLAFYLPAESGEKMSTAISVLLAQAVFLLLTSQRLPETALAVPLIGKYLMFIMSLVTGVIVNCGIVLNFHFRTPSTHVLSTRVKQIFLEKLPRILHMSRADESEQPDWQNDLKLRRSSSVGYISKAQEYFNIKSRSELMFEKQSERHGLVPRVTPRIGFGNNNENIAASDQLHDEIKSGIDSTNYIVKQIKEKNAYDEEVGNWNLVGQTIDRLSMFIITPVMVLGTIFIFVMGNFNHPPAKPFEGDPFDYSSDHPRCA
OSK-1, sequence (P55896 whole entry): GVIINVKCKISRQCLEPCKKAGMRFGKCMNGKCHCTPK

| Molecule | IC50 [1] [nM] | IC50 (human neuronal α7 nAChR) [nM] |
| --- | --- | --- |
| OSK-1 (from UniProt P55896 1-38) (peptide) | 500 | – |
| spinoxin (from UniProt P84094 1-34) (peptide) | 500 | – |
| DNWWPKPPHQGPRPPRPRPKP (not fully specified, source: synthetic peptide) [azemiopsin] | 180 | 22000 |
